Common to all, as to assay: cell-based or functional assay
The target in one test is human TMPRSS2 (human) (UniProt O15393).
The target in test [1] is Factor Xa (#1063-SE-010, R&D Systems) (UniProt P00742).
Test [2] has as its target matriptase (#3946-SE-010, R&D Systems) (UniProt Q9Y5Y6).
In test [3] the target is activated hepsin (#4776-SE-010, R&D Systems) (UniProt P05981).
Test [4] concerns the target recombinant N-terminal His-tag HGFA serine protease domain (UniProt Q04756).
Test [5] concerns the target recombinant thrombin (#1473-SE-010, R&D Systems) (UniProt P00734).
In test [6] the target is KLK5 (#1108-SE-010, R&D Systems) (UniProt Q9Y337).
Chain of KLK5 (#1108-SE-010, R&D Systems) (Q9Y337 23-293 limits assumed): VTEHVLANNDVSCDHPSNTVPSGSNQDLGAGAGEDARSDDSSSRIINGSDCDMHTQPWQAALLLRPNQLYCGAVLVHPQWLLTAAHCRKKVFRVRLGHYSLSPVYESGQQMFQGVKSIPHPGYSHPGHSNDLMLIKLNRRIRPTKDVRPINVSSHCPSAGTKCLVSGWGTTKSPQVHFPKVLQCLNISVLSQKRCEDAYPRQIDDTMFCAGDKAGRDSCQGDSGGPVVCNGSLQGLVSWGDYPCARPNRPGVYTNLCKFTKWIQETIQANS

Bounds are passed on as bounds.

Chain of matriptase (#3946-SE-010, R&D Systems) (Q9Y5Y6 615-855 limits assumed): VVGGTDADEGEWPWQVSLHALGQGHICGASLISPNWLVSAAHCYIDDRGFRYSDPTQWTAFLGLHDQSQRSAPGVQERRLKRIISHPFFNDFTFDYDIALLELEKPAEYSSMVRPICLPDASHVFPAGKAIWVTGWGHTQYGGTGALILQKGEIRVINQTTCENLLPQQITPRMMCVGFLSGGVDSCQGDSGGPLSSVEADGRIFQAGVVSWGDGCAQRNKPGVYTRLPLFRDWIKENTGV
Chain of activated hepsin (#4776-SE-010, R&D Systems) (P05981 45-417 limits assumed): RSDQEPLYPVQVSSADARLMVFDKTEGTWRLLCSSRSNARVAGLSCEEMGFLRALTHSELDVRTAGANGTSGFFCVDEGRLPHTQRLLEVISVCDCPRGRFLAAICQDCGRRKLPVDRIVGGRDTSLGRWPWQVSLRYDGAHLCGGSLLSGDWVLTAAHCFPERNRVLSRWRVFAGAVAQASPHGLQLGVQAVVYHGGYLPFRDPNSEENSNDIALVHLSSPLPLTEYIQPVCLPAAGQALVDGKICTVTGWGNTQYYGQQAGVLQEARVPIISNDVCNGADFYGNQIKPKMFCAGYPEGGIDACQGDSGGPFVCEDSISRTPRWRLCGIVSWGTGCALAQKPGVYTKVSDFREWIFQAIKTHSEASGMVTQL
Chain of recombinant N-terminal His-tag HGFA serine protease domain (Q04756 373-655, form in doubt): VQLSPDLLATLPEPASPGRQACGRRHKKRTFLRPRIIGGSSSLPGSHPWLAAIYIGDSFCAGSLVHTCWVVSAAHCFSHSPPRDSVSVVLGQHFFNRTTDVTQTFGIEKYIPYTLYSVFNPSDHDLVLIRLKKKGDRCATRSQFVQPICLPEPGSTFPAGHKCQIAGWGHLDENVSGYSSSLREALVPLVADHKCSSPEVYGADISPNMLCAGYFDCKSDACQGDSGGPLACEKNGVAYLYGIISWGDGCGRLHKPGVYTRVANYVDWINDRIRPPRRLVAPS
Chain of human TMPRSS2 (human) (O15393 whole entry): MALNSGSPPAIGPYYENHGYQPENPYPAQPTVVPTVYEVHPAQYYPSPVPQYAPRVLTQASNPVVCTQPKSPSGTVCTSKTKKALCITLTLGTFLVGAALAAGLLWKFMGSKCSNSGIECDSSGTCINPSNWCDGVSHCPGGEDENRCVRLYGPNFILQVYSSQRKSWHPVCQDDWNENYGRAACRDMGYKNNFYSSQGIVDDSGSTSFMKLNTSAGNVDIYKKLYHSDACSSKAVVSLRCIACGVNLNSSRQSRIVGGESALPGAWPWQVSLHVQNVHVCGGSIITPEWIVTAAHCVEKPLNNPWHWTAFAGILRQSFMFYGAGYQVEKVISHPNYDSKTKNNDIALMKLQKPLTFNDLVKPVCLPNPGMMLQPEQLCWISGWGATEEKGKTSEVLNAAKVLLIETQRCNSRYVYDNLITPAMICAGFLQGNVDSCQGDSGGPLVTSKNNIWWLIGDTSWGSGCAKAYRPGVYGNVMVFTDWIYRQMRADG
Chain of Factor Xa (#1063-SE-010, R&D Systems) (P00742 41-488 limits assumed): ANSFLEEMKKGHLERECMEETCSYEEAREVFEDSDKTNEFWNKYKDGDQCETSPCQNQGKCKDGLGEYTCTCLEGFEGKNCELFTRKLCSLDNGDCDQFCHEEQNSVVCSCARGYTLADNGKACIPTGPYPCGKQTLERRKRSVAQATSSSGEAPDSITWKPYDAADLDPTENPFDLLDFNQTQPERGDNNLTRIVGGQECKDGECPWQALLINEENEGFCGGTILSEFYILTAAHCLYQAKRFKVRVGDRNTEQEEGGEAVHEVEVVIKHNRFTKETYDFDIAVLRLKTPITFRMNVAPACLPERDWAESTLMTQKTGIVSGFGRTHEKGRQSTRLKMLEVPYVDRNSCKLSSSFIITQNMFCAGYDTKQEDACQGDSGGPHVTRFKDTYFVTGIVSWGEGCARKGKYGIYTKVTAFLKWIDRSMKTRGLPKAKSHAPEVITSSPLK

In turn, Cyclo(allylLY)R-kbt, VD4051 (peptide) yielded a Calu-3 EC50 with human TMPRSS2 (human) of 565 nM. Besides, the Factor Xa* (IC50 nM) in test [1] worked out at 8810 nM. In test [2], this substance had a Matriptase (IC50 nM) of 80.2 nM and a Matriptase IC50 of 14 nM. Further, in test [3], the Hepsin (IC50 nM) was 102 nM and the Hepsin IC50 amounted to 20 nM. Also, in test [4], the HGFA (IC50 nM) was > 20000 nM and the HGFA IC50 was > 20000 nM. Moreover, the Thrombin* (IC50 nM) in test [5] was > 20000 nM.
With Leupeptin (peptide), in test [6], the KLK5 IC50 is > 20000 nM.
